This is an account of results in paper PMC4358367, “Structural basis of diverse membrane target recognitions by ankyrins” (eLife, 2014).

Like-named read-outs stand apart in the source and are kept apart here.

The target in test [1] is T1, Nav1.2_ABD (ankyrin binding domain of Nav1.2, residues 1035–1129).
T1 chain: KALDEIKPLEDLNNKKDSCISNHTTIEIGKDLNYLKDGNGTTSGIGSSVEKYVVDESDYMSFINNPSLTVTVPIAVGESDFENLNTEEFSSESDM
The test is described as follows: ITC. The conditions noted are these: chain shown with the change.

Test [2] concerns the target T1, Nav1.2_ABD (ankyrin binding domain of …). The test is described as follows: ITC. The conditions noted are these: chain shown with the change.
The target in test [3] is T2, Nfasc_ABD (28-residue fragment of the neurofascin cytoplasmic tail, residues 1187–1214).
T2 chain: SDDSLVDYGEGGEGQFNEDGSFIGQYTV
Put plainly: ITC. Particulars: chain shown with the change;; parent: 0.21 ± 0.02.

For test [4], the target named is T1, Nav1.2_ABD (ankyrin binding domain of …). Put plainly: ITC. The conditions noted are these: chain shown with the change.
Test [5] has the same target. Put plainly: ITC. The conditions noted are these: chain shown with the change.
Test [6] has as its target T3, AnkG_repeats (24 ANK repeats of rat 190 kDa ankyrin-G, residues 38–855) (rat, UniProt O70511 38-855).
T3 chain: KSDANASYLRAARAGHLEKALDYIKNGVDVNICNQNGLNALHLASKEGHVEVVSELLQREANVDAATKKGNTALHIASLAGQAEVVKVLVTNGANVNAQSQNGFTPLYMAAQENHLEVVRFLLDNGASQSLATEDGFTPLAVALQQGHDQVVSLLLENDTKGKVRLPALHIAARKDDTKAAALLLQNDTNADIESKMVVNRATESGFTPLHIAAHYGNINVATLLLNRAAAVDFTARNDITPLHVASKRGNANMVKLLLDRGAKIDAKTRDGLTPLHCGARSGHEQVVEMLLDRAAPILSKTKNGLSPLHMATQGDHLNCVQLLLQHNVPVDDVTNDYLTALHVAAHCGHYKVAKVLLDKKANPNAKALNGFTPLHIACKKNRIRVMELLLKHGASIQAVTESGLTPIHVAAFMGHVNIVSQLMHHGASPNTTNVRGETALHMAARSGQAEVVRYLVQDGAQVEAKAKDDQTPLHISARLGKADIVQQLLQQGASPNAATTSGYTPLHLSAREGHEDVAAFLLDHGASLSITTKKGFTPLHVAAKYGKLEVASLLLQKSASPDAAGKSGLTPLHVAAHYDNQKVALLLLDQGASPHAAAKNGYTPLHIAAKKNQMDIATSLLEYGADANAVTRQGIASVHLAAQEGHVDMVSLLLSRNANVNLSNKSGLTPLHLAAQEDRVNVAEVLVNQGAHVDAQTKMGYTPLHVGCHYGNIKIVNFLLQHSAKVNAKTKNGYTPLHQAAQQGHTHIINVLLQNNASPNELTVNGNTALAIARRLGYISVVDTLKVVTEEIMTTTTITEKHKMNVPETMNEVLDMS
The test is described as follows: ITC. On the technique in general: In ITC the heat of successive injections is recorded.

Test [7] has as its target T4, AnkG ANK repeats R1–6 (truncation of AnkG_repeats with C-terminal capping sequence) (rat | human).
T4 chain: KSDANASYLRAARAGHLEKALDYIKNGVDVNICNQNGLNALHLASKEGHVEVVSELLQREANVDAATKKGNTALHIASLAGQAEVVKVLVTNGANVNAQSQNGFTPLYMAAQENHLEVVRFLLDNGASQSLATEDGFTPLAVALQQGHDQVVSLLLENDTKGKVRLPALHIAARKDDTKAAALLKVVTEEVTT
The test is described as follows: ITC.

Test [8] deals with T5, AnkB R1-14 (Homo sapiens).
T5 chain: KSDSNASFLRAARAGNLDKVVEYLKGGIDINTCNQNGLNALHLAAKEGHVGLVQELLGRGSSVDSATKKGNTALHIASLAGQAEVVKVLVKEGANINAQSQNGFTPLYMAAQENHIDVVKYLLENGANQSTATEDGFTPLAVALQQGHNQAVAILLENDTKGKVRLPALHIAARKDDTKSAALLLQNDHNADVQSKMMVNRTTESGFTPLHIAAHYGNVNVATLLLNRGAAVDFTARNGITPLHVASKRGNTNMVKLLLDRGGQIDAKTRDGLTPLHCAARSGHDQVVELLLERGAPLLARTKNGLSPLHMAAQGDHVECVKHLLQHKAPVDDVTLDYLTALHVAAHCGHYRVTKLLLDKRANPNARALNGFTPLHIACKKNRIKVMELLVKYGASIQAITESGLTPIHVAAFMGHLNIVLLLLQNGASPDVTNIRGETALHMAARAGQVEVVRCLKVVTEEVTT
Put plainly: ITC.

For test [9], the target named is T6, AnkB_repeats_R1–9 (first nine ANK repeats of AnkB, residues 28–318, followed by the capping sequence 814–822) (human, UniProt Q01484 28-318; Q01484 814-822).
T6 chain: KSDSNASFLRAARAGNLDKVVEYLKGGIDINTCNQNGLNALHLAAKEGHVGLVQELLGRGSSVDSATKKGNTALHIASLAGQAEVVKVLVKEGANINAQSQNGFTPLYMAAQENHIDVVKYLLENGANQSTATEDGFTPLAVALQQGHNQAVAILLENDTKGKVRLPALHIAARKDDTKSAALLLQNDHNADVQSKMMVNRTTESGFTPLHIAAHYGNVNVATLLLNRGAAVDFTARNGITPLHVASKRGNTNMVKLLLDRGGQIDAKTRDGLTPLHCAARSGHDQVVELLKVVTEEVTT
The test is described as follows: ITC.

Test [10] deals with T3, AnkG_repeats (24 ANK repeats of rat 190 …). The test is described as follows: ITC.
The target of test [11] is T7, Nav1.2 ABD C-terminal half (UniProt Q99250).
T7 chain: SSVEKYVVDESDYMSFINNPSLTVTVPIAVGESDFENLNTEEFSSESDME

The target of test [12] is T3, AnkG_repeats (24 ANK repeats of rat 190 …). Put plainly: ITC.
In test [13] the target is T4, AnkG ANK repeats R1–6 (truncation of …). Put plainly: ITC.

B1: AnkG_repeats (24 ANK repeats of rat 190 kDa ankyrin-G, residues 38–855), O70511 F131Q; F164Q (protein)
chain: KSDANASYLRAARAGHLEKALDYIKNGVDVNICNQNGLNALHLASKEGHVEVVSELLQREANVDAATKKGNTALHIASLAGQAEVVKVLVTNGANVNAQSQNGQTPLYMAAQENHLEVVRFLLDNGASQSLATEDGQTPLAVALQQGHDQVVSLLLENDTKGKVRLPALHIAARKDDTKAAALLLQNDTNADIESKMVVNRATESGFTPLHIAAHYGNINVATLLLNRAAAVDFTARNDITPLHVASKRGNANMVKLLLDRGAKIDAKTRDGLTPLHCGARSGHEQVVEMLLDRAAPILSKTKNGLSPLHMATQGDHLNCVQLLLQHNVPVDDVTNDYLTALHVAAHCGHYKVAKVLLDKKANPNAKALNGFTPLHIACKKNRIRVMELLLKHGASIQAVTESGLTPIHVAAFMGHVNIVSQLMHHGASPNTTNVRGETALHMAARSGQAEVVRYLVQDGAQVEAKAKDDQTPLHISARLGKADIVQQLLQQGASPNAATTSGYTPLHLSAREGHEDVAAFLLDHGASLSITTKKGFTPLHVAAKYGKLEVASLLLQKSASPDAAGKSGLTPLHVAAHYDNQKVALLLLDQGASPHAAAKNGYTPLHIAAKKNQMDIATSLLEYGADANAVTRQGIASVHLAAQEGHVDMVSLLLSRNANVNLSNKSGLTPLHLAAQEDRVNVAEVLVNQGAHVDAQTKMGYTPLHVGCHYGNIKIVNFLLQHSAKVNAKTKNGYTPLHQAAQQGHTHIINVLLQNNASPNELTVNGNTALAIARRLGYISVVDTLKVVTEEIMTTTTITEKHKMNVPETMNEVLDMS
In the case of B1, the Kd in test [1] and in test [2] was 6600 nM each time.

B2: AnkG_repeats (24 ANK repeats of rat 190 kDa ankyrin-G, residues 38–855), O70511 L366Q; F399Q; L432Q (protein)
chain: KSDANASYLRAARAGHLEKALDYIKNGVDVNICNQNGLNALHLASKEGHVEVVSELLQREANVDAATKKGNTALHIASLAGQAEVVKVLVTNGANVNAQSQNGFTPLYMAAQENHLEVVRFLLDNGASQSLATEDGFTPLAVALQQGHDQVVSLLLENDTKGKVRLPALHIAARKDDTKAAALLLQNDTNADIESKMVVNRATESGFTPLHIAAHYGNINVATLLLNRAAAVDFTARNDITPLHVASKRGNANMVKLLLDRGAKIDAKTRDGLTPLHCGARSGHEQVVEMLLDRAAPILSKTKNGLSPLHMATQGDHLNCVQLLLQHNVPVDDVTNDYQTALHVAAHCGHYKVAKVLLDKKANPNAKALNGQTPLHIACKKNRIRVMELLLKHGASIQAVTESGQTPIHVAAFMGHVNIVSQLMHHGASPNTTNVRGETALHMAARSGQAEVVRYLVQDGAQVEAKAKDDQTPLHISARLGKADIVQQLLQQGASPNAATTSGYTPLHLSAREGHEDVAAFLLDHGASLSITTKKGFTPLHVAAKYGKLEVASLLLQKSASPDAAGKSGLTPLHVAAHYDNQKVALLLLDQGASPHAAAKNGYTPLHIAAKKNQMDIATSLLEYGADANAVTRQGIASVHLAAQEGHVDMVSLLLSRNANVNLSNKSGLTPLHLAAQEDRVNVAEVLVNQGAHVDAQTKMGYTPLHVGCHYGNIKIVNFLLQHSAKVNAKTKNGYTPLHQAAQQGHTHIINVLLQNNASPNELTVNGNTALAIARRLGYISVVDTLKVVTEEIMTTTTITEKHKMNVPETMNEVLDMS
For the molecule B2, the results for the Kd in test [1], in [3] and in test [4] were 1100 nM, 6000 nM and 1100 nM, respectively.

B3: AnkG_repeats (24 ANK repeats of rat 190 kDa ankyrin-G, residues 38–855), O70511 I267Q; L300Q (protein)
chain: KSDANASYLRAARAGHLEKALDYIKNGVDVNICNQNGLNALHLASKEGHVEVVSELLQREANVDAATKKGNTALHIASLAGQAEVVKVLVTNGANVNAQSQNGFTPLYMAAQENHLEVVRFLLDNGASQSLATEDGFTPLAVALQQGHDQVVSLLLENDTKGKVRLPALHIAARKDDTKAAALLLQNDTNADIESKMVVNRATESGFTPLHIAAHYGNINVATLLLNRAAAVDFTARNDQTPLHVASKRGNANMVKLLLDRGAKIDAKTRDGQTPLHCGARSGHEQVVEMLLDRAAPILSKTKNGLSPLHMATQGDHLNCVQLLLQHNVPVDDVTNDYLTALHVAAHCGHYKVAKVLLDKKANPNAKALNGFTPLHIACKKNRIRVMELLLKHGASIQAVTESGLTPIHVAAFMGHVNIVSQLMHHGASPNTTNVRGETALHMAARSGQAEVVRYLVQDGAQVEAKAKDDQTPLHISARLGKADIVQQLLQQGASPNAATTSGYTPLHLSAREGHEDVAAFLLDHGASLSITTKKGFTPLHVAAKYGKLEVASLLLQKSASPDAAGKSGLTPLHVAAHYDNQKVALLLLDQGASPHAAAKNGYTPLHIAAKKNQMDIATSLLEYGADANAVTRQGIASVHLAAQEGHVDMVSLLLSRNANVNLSNKSGLTPLHLAAQEDRVNVAEVLVNQGAHVDAQTKMGYTPLHVGCHYGNIKIVNFLLQHSAKVNAKTKNGYTPLHQAAQQGHTHIINVLLQNNASPNELTVNGNTALAIARRLGYISVVDTLKVVTEEIMTTTTITEKHKMNVPETMNEVLDMS
As to B3, the equilibrium dissociation constant (Kd) (commonly the free concentration of one partner at which half of the binding sites on the other are occupied at equilibrium, for simple one-to-one binding) amounted to 220 nM in test [1], 2800 nM in test [3] and 220 nM in test [5].

B4: Nfasc entire cytoplasmic tail (residues 1132–1240) (domain or fragment)
chain: KRSRGGKYPVREKKDVPLGPEDPKEEDGSFDYSDEDNKPLQGSQTSLDGTIKQQESDDSLVDYGEGGEGQFNEDGSFIGQYTVKKDKEETEGNESSEATSPVNAIYSLA
Regarding B4, in test [6], binding was characterised by a dissociation constant (Kd) of 580 nM.

B5: Nav1.2_ABD (ankyrin binding domain of Nav1.2, residues 1035–1129) (domain or fragment)
chain: KALDEIKPLEDLNNKKDSCISNHTTIEIGKDLNYLKDGNGTTSGIGSSVEKYVVDESDYMSFINNPSLTVTVPIAVGESDFENLNTEEFSSESDM
On to B5, for which the values for the Kd in [7], in [8] and in [9] were 2300 nM, 290 nM and 3500 nM, respectively.

B6: E1112K-Nav1.2 (ABD with the charge reversal mutation E1112K) (domain or fragment)
chain: KALDEIKPLEDLNNKKDSCISNHTTIEIGKDLNYLKDGNGTTSGIGSSVEKYVVDESDYMSFINNPSLTVTVPIAVGKSDFENLNTEEFSSESDM
On to B6, for which the Kd in [10] is > 50000 nM.

B7: AnkB repeats R1-6 (peptide)
chain: MMNEDA
For B7, the Kd in test [11] was ~2300 nM.

B8: Nav1.2_ABD-C (27-residue motif of loop 2, residues 1103–1129) (domain or fragment)
chain: TVTVPIAVGESDFENLNTEEFSSESDM
For B8, the Kd came out at 2700 nM in [12] and 2300 nM in test [13].
